According to paper PMC13397619:

B1: NLV3 TCR beta chain (CDR3β only) (parent)
chain: ASSPTGGSPSPLH
partner: MLVPMVATV
B2: NLV2 TCR alpha chain (CDR3α only) (parent)
chain: AGPMKTSYDKVI

Variants of: B1
Assay: T-Switch: Jurkat TCRβ−/− cells expressing a CDR3 saturation-mutagenesis library, stained with two peptide-HLA-A*02:01 tetramers (original and novel peptide) plus anti-CD3, FACS-sorted into four gates, gDNA sequenced
Conditions: with HLA-A*02:01 with peptide … (NLV 3-1, the original bait), tetramers 1 µg/mL, 30 min on ice, DP and SW gates expanded about 10 days between rounds ('two to three rounds of selection' in the Methods), gate SP: higher = more of the variant in the gate that binds the original peptide and not the novel one = retained original binding. Fold enrichment of the CDR3 variant in one FACS gate of a two-tetra, unresolved parent, parent is a CDR3 fragment, scale: fold enrichment, numbering: sequential-on-construct, sequence …

| Variant | enrichment |
| --- | --- |
| […] (CDR3 as printed); S8T derived by comparing it with the table's wild-type CDR3 ASSPTGGSPSPLH | 0 |
| […] (CDR3 as printed); S3G derived by comparing it with the table's wild-type CDR3 ASSPTGGSPSPLH | 9.71 |
| […] (CDR3 as printed); S2G derived by comparing it with the table's wild-type CDR3 ASSPTGGSPSPLH | 1.01 |
| […] (CDR3 as printed); T5P derived by comparing it with the table's wild-type CDR3 ASSPTGGSPSPLH | 0 |
| […] (CDR3 as printed); P4C derived by comparing it with the table's wild-type CDR3 ASSPTGGSPSPLH | 0 |
| […] (CDR3 as printed); S3Q derived by comparing it with the table's wild-type CDR3 ASSPTGGSPSPLH | 0 |
| […] (CDR3 as printed); L12P derived by comparing it with the table's wild-type CDR3 ASSPTGGSPSPLH | 0 |
| […] (CDR3 as printed); S8A derived by comparing it with the table's wild-type CDR3 ASSPTGGSPSPLH | 11.2 |
| […] (CDR3 as printed); P9K derived by comparing it with the table's wild-type CDR3 ASSPTGGSPSPLH | 0 |
| […] (CDR3 as printed); P11D derived by comparing it with the table's wild-type CDR3 ASSPTGGSPSPLH | 0 |
| […] (CDR3 as printed); P11Q derived by comparing it with the table's wild-type CDR3 ASSPTGGSPSPLH | 5.97 |
| […] (CDR3 as printed); P11R derived by comparing it with the table's wild-type CDR3 ASSPTGGSPSPLH | 9.69 |
| […] (CDR3 as printed); T5A derived by comparing it with the table's wild-type CDR3 ASSPTGGSPSPLH | 2.2 |
| […] (CDR3 as printed); P4W derived by comparing it with the table's wild-type CDR3 ASSPTGGSPSPLH | 0 |
| […] (CDR3 as printed); S10P derived by comparing it with the table's wild-type CDR3 ASSPTGGSPSPLH | 0 |
| […] (CDR3 as printed); L12K derived by comparing it with the table's wild-type CDR3 ASSPTGGSPSPLH | 0 |

| Variant | enrichment |
| --- | --- |
| […] (CDR3 as printed); T5M derived by comparing it with the table's wild-type CDR3 ASSPTGGSPSPLH | 7.93 |
| […] (CDR3 as printed); S10D derived by comparing it with the table's wild-type CDR3 ASSPTGGSPSPLH | 0.543 |
| […] (CDR3 as printed); P9V derived by comparing it with the table's wild-type CDR3 ASSPTGGSPSPLH | 3.5 |
| […] (CDR3 as printed); S2Y derived by comparing it with the table's wild-type CDR3 ASSPTGGSPSPLH | 0 |
| […] (CDR3 as printed); S8I derived by comparing it with the table's wild-type CDR3 ASSPTGGSPSPLH | 0 |
| […] (CDR3 as printed); P11H derived by comparing it with the table's wild-type CDR3 ASSPTGGSPSPLH | 0 |
| […] (CDR3 as printed); S10L derived by comparing it with the table's wild-type CDR3 ASSPTGGSPSPLH | 8.65 |
| […] (CDR3 as printed); S10H derived by comparing it with the table's wild-type CDR3 ASSPTGGSPSPLH | 0 |
| […] (CDR3 as printed); P11S derived by comparing it with the table's wild-type CDR3 ASSPTGGSPSPLH | 2.02 |
| […] (CDR3 as printed); S2P derived by comparing it with the table's wild-type CDR3 ASSPTGGSPSPLH | 0 |
| […] (CDR3 as printed); P4D derived by comparing it with the table's wild-type CDR3 ASSPTGGSPSPLH | 0 |
| […] (CDR3 as printed); P9Q derived by comparing it with the table's wild-type CDR3 ASSPTGGSPSPLH | 0 |
| […] (CDR3 as printed); S2R derived by comparing it with the table's wild-type CDR3 ASSPTGGSPSPLH | 0 |
| […] (CDR3 as printed); S3H derived by comparing it with the table's wild-type CDR3 ASSPTGGSPSPLH | 0.783 |
| […] (CDR3 as printed); S2F derived by comparing it with the table's wild-type CDR3 ASSPTGGSPSPLH | 3.1 |

Variants of: B2
Assay: as above
Conditions: with both tetramers (double-negative gate, binds neither): HLA-A*02:01 with … and with …, tetramers 1 µg/mL, 30 min on ice, SP, DP and SW gates expanded about 10 days between rounds ('two to three rounds of selection' in the Methods), gate DN: OPPOSITE: higher = more of the variant in the gate that binds neither peptide = LESS binding (or no expression; inferred). Fold enrichment of the CDR3 variant in one FACS gate of a two-tetram, unresolved parent, parent is a CDR3 fragment, scale: fold enrichment, numbering: sequential-on-construct, sequence starts at 1

| Variant | enrichment |
| --- | --- |
| […] (CDR3 as printed); A1G derived by comparing it with the table's wild-type CDR3 AGPMKTSYDKVI | 0.876 |
| […] (CDR3 as printed); A1E derived by comparing it with the table's wild-type CDR3 AGPMKTSYDKVI | 0.767 |
| […] (CDR3 as printed); A1H derived by comparing it with the table's wild-type CDR3 AGPMKTSYDKVI | 0.735 |
| […] (CDR3 as printed); A1D derived by comparing it with the table's wild-type CDR3 AGPMKTSYDKVI | 0.746 |
| […] (CDR3 as printed); A1F derived by comparing it with the table's wild-type CDR3 AGPMKTSYDKVI | 0.884 |
| […] (CDR3 as printed); A1C derived by comparing it with the table's wild-type CDR3 AGPMKTSYDKVI | 0.8 |

Same assay, conditions: with both tetramers (double-positive gate): HLA-A*02:01 with … and with …, tetramers 1 µg/mL, 30 min on ice, SP, DP and SW gates expanded about 10 days between rounds ('two to three rounds of selection' in the Methods), gate DP: higher = more of the variant in the gate that binds both peptides. Fold enrichment of the CDR3 variant in one FACS gate of a two-tetramer stain. SP/DP/SW gates were expanded and re-sorted bef, unresolved parent, parent is a CDR3 fragment, scale: fold enrichment, numbering: sequential-on-construct, sequence starts at 1

| Variant | enrichment |
| --- | --- |
| […] (CDR3 as printed); A1G derived by comparing it with the table's wild-type CDR3 AGPMKTSYDKVI | 0 |
| […] (CDR3 as printed); A1E derived by comparing it with the table's wild-type CDR3 AGPMKTSYDKVI | 0 |
| […] (CDR3 as printed); A1H derived by comparing it with the table's wild-type CDR3 AGPMKTSYDKVI | 0 |
| […] (CDR3 as printed); A1D derived by comparing it with the table's wild-type CDR3 AGPMKTSYDKVI | 0 |
| […] (CDR3 as printed); A1F derived by comparing it with the table's wild-type CDR3 AGPMKTSYDKVI | 0 |
| […] (CDR3 as printed); A1C derived by comparing it with the table's wild-type CDR3 AGPMKTSYDKVI | 0 |
